The text below walks through data of PMC4646009.

Experiment [1] concerns the target Streptococcus thermophilus QueG (epoxyqueuosine reductase) (Streptococcus thermophilus). As to the kind of experiment: native MS; nano-ESI, Waters Synapt G2, protein at 3-30 uM in anaerobic 100 mM ammonium acetate pH 6.8; monomer to dimer.
Experiment [2] shares this target. Described as above. The source holds these as a separate data set.

Where two headings read alike, the source gives them in different places. Some results are limits rather than exact numbers.

With “Streptococcus thermophilus QueG (epoxyqueuosine reductase) (enzyme)”, the proportion of dimer in experiment [1] is below 5%. In addition, in experiment [2], the proportion of dimer is 5% and the stoichiometry N (usually a count of units in the complex or per binding partner) amounted to 2.
